Measured values: US11306156
Blank lines part the entries; values can stand above or below the substance they belong to.

How the values were obtained:
[1] = target: D3H44 light chain Q124R_T178R, N-terminal HA or FLAG tag; assay: LCCA, SPR of light chain tags, L1:L2 DNA 1:3 norm. to 1:1; other light chain m22
[2] = target: D3H44 light chain Q124E_V133Y_T180E, N-terminal HA or FLAG tag; assay: LCCA, SPR of light chain tags, L1:L2 DNA 1:3 norm. to 1:1; other light chain m14
[3] = target: D3H44 light chain Q124E_V133E, N-terminal HA or FLAG tag; assay: LCCA, SPR of light chain tags, L1:L2 DNA 1:9 norm. to 1:1; other light chain m17
[4] = target: D3H44 light chain Q124E_T178E_T180E, N-terminal HA or FLAG tag; assay: as above
[5] = target: D3H44 light chain S131E, N-terminal HA or FLAG tag; assay: LCCA, SPR of light chain tags, L1:L2 DNA 1:3 norm. to 1:1; other light chain m14
[6] = target: D3H44 light chain S131E, N-terminal HA or FLAG tag; assay: LCCA, SPR of light chain tags, L1:L2 DNA 1:3 norm. to 1:1; other light chain m17
[7] = target: D3H44 light chain Q124E_V133E, N-terminal HA or FLAG tag; assay: as above
[8] = target: D3H44 light chain Q124E_T178E_T180E, N-terminal HA or FLAG tag; assay: as above
[9] = target: D3H44 light chain Q124E_T178E, N-terminal HA or FLAG tag; assay: as above
[10] = target: D3H44 light chain Q124E_Q160E_T178E, N-terminal HA or FLAG tag; assay: as above
[11] = target: D3H44 light chain Q124R_Q160K_T178R, N-terminal HA or FLAG tag; assay: LCCA, SPR of light chain tags, L1:L2 DNA 1:3 norm. to 1:1; other light chain m26
[12] = target: D3H44 light chain Q124R_Q160K_T178R, N-terminal HA or FLAG tag; assay: LCCA, SPR of light chain tags, L1:L2 DNA 1:3 norm. to 1:1; other light chain m23
[13] = target: D3H44 light chain Q124R_Q160K_T178R, N-terminal HA or FLAG tag; assay: LCCA, SPR of light chain tags, L1:L2 DNA 1:3 norm. to 1:1; other light chain m18
[14] = target: D3H44 light chain Q124R_Q160K_T178R, N-terminal HA or FLAG tag; assay: LCCA, SPR of light chain tags, L1:L2 DNA 1:9 norm. to 1:1; other light chain m21
[15] = target: D3H44 light chain Q124R_Q160K_T178R, N-terminal HA or FLAG tag; assay: LCCA, SPR of light chain tags, L1:L2 DNA 1:9 norm. to 1:1; other light chain m18
[16] = target: D3H44 light chain Q124R_Q160K_T178R, N-terminal HA or FLAG tag; assay: LCCA, SPR of light chain tags, L1:L2 DNA 1:3 norm. to 1:1; other light chain m21
[17] = target: D3H44 light chain Q124R_Q160K_T178R, N-terminal HA or FLAG tag; assay: LCCA, SPR of light chain tags, L1:L2 DNA 1:3 norm. to 1:1; other light chain m19
[18] = target: D3H44 light chain Q124R_T178R, N-terminal HA or FLAG tag; assay: as above
[19] = target: D3H44 light chain Q124R_T178R, N-terminal HA or FLAG tag; assay: LCCA, SPR of light chain tags, L1:L2 DNA 1:3 norm. to 1:1; other light chain m25
[20] = target: D3H44 light chain Q124R_T178R, N-terminal HA or FLAG tag; assay: LCCA, SPR of light chain tags, L1:L2 DNA 1:9 norm. to 1:1; other light chain m16
[21] = target: D3H44 light chain Q124R_T178R, N-terminal HA or FLAG tag; assay: LCCA, SPR of light chain tags, L1:L2 DNA 1:3 norm. to 1:1; other light chain m15
[22] = target: D3H44 light chain Q124E_S131T_T178Y_T180E, N-terminal HA or FLAG tag; assay: LCCA, SPR of light chain tags, L1:L2 DNA 1:3 norm. to 1:1; other light chain m14
[23] = target: D3H44 light chain Q124E_V133W_T180E, N-terminal HA or FLAG tag; assay: as above
[24] = target: D3H44 light chain Q124E_S176L_T180E, N-terminal HA or FLAG tag; assay: as above
[25] = target: D3H44 light chain Q124E_S131T_T178F_T180E, N-terminal HA or FLAG tag; assay: as above
[26] = target: D3H44 light chain Q124E_S131T_T178Y_T180E, N-terminal HA or FLAG tag; assay: LCCA, SPR of light chain tags, L1:L2 DNA 1:9 norm. to 1:1; other light chain m14
[27] = target: D3H44 light chain Q124E_S176L_T180E, N-terminal HA or FLAG tag; assay: as above
[28] = target: D3H44 light chain Q124R_T178R, N-terminal HA or FLAG tag; assay: LCCA, SPR of light chain tags, L1:L2 DNA 1:9 norm. to 1:1; other light chain m15
[29] = target: D3H44 light chain Q124R_T178R, N-terminal HA or FLAG tag; assay: LCCA, SPR of light chain tags, L1:L2 DNA 1:3 norm. to 1:1; other light chain m20
[30] = target: D3H44 light chain Q124R_T178R, N-terminal HA or FLAG tag; assay: LCCA, SPR of light chain tags, L1:L2 DNA 1:3 norm. to 1:1; other light chain m16
[31] = target: D3H44 light chain Q124R_Q160K_T178R, N-terminal HA or FLAG tag; assay: LCCA, SPR of light chain tags, L1:L2 DNA 1:3 norm. to 1:1; other light chain m27
[32] = target: D3H44 light chain Q124E_V133D_S176L, N-terminal HA or FLAG tag; assay: LCCA, SPR of light chain tags, L1:L2 DNA 1:9 norm. to 1:1; other light chain m17
[33] = target: D3H44 light chain Q124E_V133D_S176L, N-terminal HA or FLAG tag; assay: LCCA, SPR of light chain tags, L1:L2 DNA 1:3 norm. to 1:1; other light chain m17
[34] = target: D3H44 light chain Q124R_Q160K_T178R, N-terminal HA or FLAG tag; assay: LCCA, SPR of light chain tags, L1:L2 DNA 1:9 norm. to 1:1; other light chain m27
[35] = target: D3H44 light chain Q124E_V133D, N-terminal HA or FLAG tag; assay: LCCA, SPR of light chain tags, L1:L2 DNA 1:9 norm. to 1:1; other light chain m24
[36] = target: D3H44 light chain Q124E_V133D, N-terminal HA or FLAG tag; assay: LCCA, SPR of light chain tags, L1:L2 DNA 1:3 norm. to 1:1; other light chain m24
[37] = target: D3H44 light chain Q124R, N-terminal HA or FLAG tag; assay: LCCA, SPR of light chain tags, L1:L2 DNA 1:3 norm. to 1:1; other light chain m28
[38] = target: D3H44 light chain Q124R, N-terminal HA or FLAG tag; assay: LCCA, SPR of light chain tags, L1:L2 DNA 1:9 norm. to 1:1; other light chain m28
[39] = target: D3H44 light chain Q124E_V133E, N-terminal HA or FLAG tag; assay: LCCA, SPR of light chain tags, L1:L2 DNA 1:3 norm. to 1:1; other light chain m24
[40] = target: D3H44 light chain Q124R, N-terminal HA or FLAG tag; assay: LCCA, SPR of light chain tags, L1:L2 DNA 1:3 norm. to 1:1; other light chain m18
[41] = target: D3H44 light chain Q124E_S176L_T180E, N-terminal HA or FLAG tag; assay: LCCA, SPR of light chain tags, L1:L2 DNA 1:3 norm. to 1:1; other light chain m17
[42] = target: D3H44 light chain Q124R_Q160K_T178R, N-terminal HA or FLAG tag; assay: LCCA, SPR of light chain tags, L1:L2 DNA 1:3 norm. to 1:1; other light chain m16

- H1L1:H1L2 normalized median ratio [1]: 4%
- H1L1:H1L2 normalized median ratio [2]: 96%
- H1L1:H1L2 normalized median scalar value ln(r1/f1) [2]: 1
Substance: D3H44 Fab heavy chain L143A_Q179K, ABD2-His6 tagged

- H2L2:H2L1 normalized median ratio [19]: 75%
- H1L1:H1L2 normalized median ratio [20]: 90%
- H1L1:H1L2 normalized median scalar value ln(r1/f1) [20]: 2.25
- H2L2:H2L1 normalized median ratio [1]: 71%
- H1L1:H1L2 normalized median ratio [21]: 83%
- H1L1:H1L2 normalized median scalar value ln(r1/f1) [21]: 1.62
- H1L1:H1L2 normalized median ratio [22]: 17%
- H2L2:H2L1 normalized median ratio [23]: 25%
- H2L2:H2L1 normalized median ratio [2]: 29%
- H1L1:H1L2 normalized median ratio [24]: 13%
- H1L1:H1L2 normalized median ratio [25]: 23%
- H1L1:H1L2 normalized median ratio [26]: 21%
- H1L1:H1L2 normalized median ratio [27]: 10%
- H1L1:H1L2 normalized median ratio [28]: 79%
- H1L1:H1L2 normalized median scalar value ln(r1/f1) [28]: 1.33
- H1L1:H1L2 normalized median ratio [29]: 77%
- H1L1:H1L2 normalized median scalar value ln(r1/f1) [29]: 1.19
- H1L1:H1L2 normalized median ratio [30]: 87%
- H1L1:H1L2 normalized median scalar value ln(r1/f1) [30]: 1.9
Substance: D3H44 Fab heavy chain L143E_K145T_Q179E_S188L, ABD2-His6 tagged

- H2L2:H2L1 normalized median ratio [39]: 96%
- H2L2:H2L1 normalized median ratio [3]: 93%
- H2L2:H2L1 normalized median ratio [7]: 96%
- H2L2:H2L1 normalized median ratio [13]: 4%
- H2L2:H2L1 normalized median ratio [40]: 4%
- H2L2:H2L1 normalized median ratio [15]: 7%
Substance: D3H44 Fab heavy chain L143R, ABD2-His6 tagged

- H2L2:H2L1 normalized median ratio [21]: 5%
- H2L2:H2L1 normalized median ratio [5]: 98%
- H2L2:H2L1 normalized median ratio [22]: 95%
- H2L2:H2L1 normalized median ratio [25]: 96%
- H2L2:H2L1 normalized median ratio [6]: 99%
- H2L2:H2L1 normalized median ratio [9]: 98%
- H2L2:H2L1 normalized median ratio [11]: 2%
- H2L2:H2L1 normalized median ratio [26]: 89%
- H2L2:H2L1 normalized median ratio [28]: 11%
- H2L2:H2L1 normalized median ratio [17]: 1%
- H2L2:H2L1 normalized median ratio [18]: 2%
- H2L2:H2L1 normalized median ratio [29]: 4%
Substance: D3H44 Fab heavy chain S186K, ABD2-His6 tagged

The next lines start with the substance.

Substance: D3H44 Fab heavy chain L143E_K145T, ABD2-His6 tagged
- H1L1:H1L2 normalized median ratio [3]: 13%
- H1L1:H1L2 normalized median ratio [4]: 19%
- H1L1:H1L2 normalized median ratio [5]: 54%
- H1L1:H1L2 normalized median ratio [6]: 53%
- H1L1:H1L2 normalized median ratio [7]: 21%
- H1L1:H1L2 normalized median ratio [8]: 18%
- H1L1:H1L2 normalized median ratio [9]: 41%
- H1L1:H1L2 normalized median ratio [10]: 41%
- H1L1:H1L2 normalized median ratio [11]: 59%
- H1L1:H1L2 normalized median scalar value ln(r1/f1) [11]: 0.36
- H1L1:H1L2 normalized median ratio [12]: 59%
- H1L1:H1L2 normalized median scalar value ln(r1/f1) [12]: 0.37
- H1L1:H1L2 normalized median ratio [13]: 79%
- H1L1:H1L2 normalized median scalar value ln(r1/f1) [13]: 1.35
- H1L1:H1L2 normalized median ratio [14]: 81%
- H1L1:H1L2 normalized median scalar value ln(r1/f1) [14]: 1.44
- H1L1:H1L2 normalized median ratio [15]: 37%
- H1L1:H1L2 normalized median ratio [16]: 82%
- H1L1:H1L2 normalized median scalar value ln(r1/f1) [16]: 1.52
- H1L1:H1L2 normalized median ratio [17]: 47%
- H1L1:H1L2 normalized median scalar value ln(r1/f1) [17]: -0.14
- H1L1:H1L2 normalized median ratio [18]: 46%
- H1L1:H1L2 normalized median scalar value ln(r1/f1) [18]: -0.16

Substance: D3H44 Fab heavy chain L143K, ABD2-His6 tagged
- H2L2:H2L1 normalized median ratio [31]: 6%
- H2L2:H2L1 normalized median ratio [32]: 91%
- H2L2:H2L1 normalized median ratio [33]: 94%
- H2L2:H2L1 normalized median ratio [34]: 9%

Substance: D3H44 Fab heavy chain L143K_D146G, ABD2-His6 tagged
- H2L2:H2L1 normalized median ratio [35]: 88%
- H2L2:H2L1 normalized median ratio [36]: 91%
- H2L2:H2L1 normalized median ratio [37]: 9%
- H2L2:H2L1 normalized median ratio [38]: 12%

Substance: D3H44 Fab heavy chain Q179R, ABD2-His6 tagged
- H2L2:H2L1 normalized median ratio [20]: 15%
- H2L2:H2L1 normalized median ratio [21]: 6%
- H2L2:H2L1 normalized median ratio [4]: 92%
- H2L2:H2L1 normalized median ratio [22]: 94%
- H2L2:H2L1 normalized median ratio [24]: 93%
- H2L2:H2L1 normalized median ratio [25]: 96%
- H2L2:H2L1 normalized median ratio [8]: 93%
- H2L2:H2L1 normalized median ratio [9]: 97%
- H2L2:H2L1 normalized median ratio [10]: 97%
- H2L2:H2L1 normalized median ratio [41]: 98%
- H2L2:H2L1 normalized median ratio [11]: 3%
- H2L2:H2L1 normalized median ratio [12]: 3%
- H2L2:H2L1 normalized median ratio [14]: 8%
- H2L2:H2L1 normalized median ratio [26]: 91%
- H2L2:H2L1 normalized median ratio [27]: 85%
- H2L2:H2L1 normalized median ratio [16]: 7%
- H2L2:H2L1 normalized median ratio [28]: 9%
- H2L2:H2L1 normalized median ratio [29]: 4%
- H2L2:H2L1 normalized median ratio [42]: 2%
- H2L2:H2L1 normalized median ratio [30]: 7%
